Experimental data published in article PMC12589563.

Target: KCNQ1 of the KCNQ1APO structure (human) (UniProt P51787)
Assay: cryo-EM structure; human KCNQ1 with CaM, apo state; C4 symmetry, 2.5 Å

stoichiometry N: 4
Substance: KCNQ1 of the KCNQ1APO structure (from UniProt P51787 1-676) (natural protein)
